Consider one molecule from PMC8786865 (2022).

The target of the experiment is SARS-CoV-2 spike protein receptor-binding domain (RBD) (SARS-CoV-2, UniProt P0DTC2 319-541). As to the kind of experiment: SPR.

B1: #41 (antibody, V domains shown)
VH: QVQLVQSGAEVKKPGASVKVSCKVSGYTSPATIHWVRQAPGKGLEWMGGISPYKGDTIYAQKFQGRVTMTEDTSTDTAYMELSSLKSEDTAVYYCAKDSYYYDSSGSGLGGGFDYWGQGTLVTVSS
VL: DIQMTQSPSSVSASVGDRVTITCRASRDISSYLAWYQQKPGKAPKLLIYGASTRASGVPSRFSGSGSGTDFTLTISSLQPEDFANYYCLQYSIYPWTFGGGTKVEIK
In the case of B1, binding was characterised by a dissociation constant (Kd) of 295 pM.
